The text below walks through data of US20110129470A1 (BOARD OF TRUSTEES OF THE UNIVERSITY OF ILLNOIS, published 2011).

This data set concerns the molecule itself. In words: X-ray crystal structure of human dCK.

From the text: Crystals were transferred to a cryoprotectant solution that in the case of the citrate condition was made of mineral oil (Sigma) while for the crystals grown in PEG it was composed of the mother liquor and 10% (w/v) xylitol-10% (w/v) sucrose. Once the crystals were mounted in loops, they were frozen by directly immersing them in liquid nitrogen. X-ray data were collected at the Advanced Photon Source using the BioCARS beamlines BM-C and BM-D, and the SERCAT beamline ID-22.
Data for the MAD data set were collected to 2.3 Å resolution. A partially built model into the MAD electron density was used to solve the tetragonal crystals. The electron density for dCK extended to the last residue (Leu260), while the N-terminus (residues 1 to 19) was flexible and could not be modeled. […] The ligands were refined without conformational torsion-angle restraints in order to prevent bias towards a particular ring conformation for the sugars.

B1: Human deoxycytidine kinase (dCK), wild type (enzyme)
chain: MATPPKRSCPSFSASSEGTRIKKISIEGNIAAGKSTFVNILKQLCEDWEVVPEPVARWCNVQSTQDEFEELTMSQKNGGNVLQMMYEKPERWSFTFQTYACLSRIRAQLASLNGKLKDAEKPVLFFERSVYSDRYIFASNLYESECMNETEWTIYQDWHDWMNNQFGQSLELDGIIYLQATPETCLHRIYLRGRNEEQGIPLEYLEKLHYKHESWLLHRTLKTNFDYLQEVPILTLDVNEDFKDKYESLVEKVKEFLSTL
modifications: selenomethionine-substituted protein was used for the MAD phasing data set
notes: Recombinant protein from E. coli; the His-tag was cleaved by thrombin before crystallisation; Residues 1 to 19 were flexible and not modelled; It is a homodimer in the crystal structure; also called human dCK; WT dCK
Regarding B1, the binding result was “binds”.
